Experimental data taken from publication PMC4113420 (Molecular cell, 2014).
Positions count from the first letter of the chain named.

B1: Wild-type PCNA (S. cerevisiae, encoded by POL30) (natural protein)
chain: MLEAKFEEASLFKRIIDGFKDCVQLVNFQCKEDGIIAQAVDDSRVLLVSLEIGVEAFQEYRCDHPVTLGMDLTSLSKILRCGNNTDTLTLIADNTPDSIILLFEDTKKDRIAEYSLKLMDIDADFLKIEELQYDSTLSLPSSEFSKIVRDLSQLSDSINIMITKETIKFVADGDIGSGSVIIKPFVDMEHPETSIKLEMDQPVDLTFGAKYLLDIIKGSSLSDRVGIRLSSEAPALFQFDLKSGFLQFFLAPKFNDEE
modifications: biotinylated when bound to the SPR chip (site not stated)
B2: PCNA-C81R (natural protein, S. cerevisiae)
chain: B1 chain with C81R
modifications: biotinylated when bound to the SPR chip (site not stated)
B3: PCNA-C22Y (natural protein, S. cerevisiae)
chain: B1 chain with C22Y
modifications: biotinylated when bound to the SPR chip (site not stated)
B4: PCNA-K217E (natural protein, S. cerevisiae)
chain: B1 chain with K217E
modifications: biotinylated when bound to the SPR chip (site not stated)
B5: PCNA-L68S (natural protein, S. cerevisiae)
chain: B1 chain with L68S
modifications: biotinylated when bound to the SPR chip (site not stated)
B6: PCNA-E143K (natural protein, S. cerevisiae)
chain: B1 chain with E143K
modifications: biotinylated when bound to the SPR chip (site not stated)
B7: PCNA-K13E (natural protein, S. cerevisiae)
chain: B1 chain with K13E
modifications: biotinylated when bound to the SPR chip (site not stated)
B8: PCNA-F254L (natural protein, S. cerevisiae)
chain: B1 chain with F254L
modifications: biotinylated when bound to the SPR chip (site not stated)

Biological target: Msh2-Msh6 (S. cerevisiae, UniProt P25847 1-964; Q03834 1-1242)
Test: SPR

Sequence of Msh2-Msh6 (P25847 whole entry, chain 1 of 2): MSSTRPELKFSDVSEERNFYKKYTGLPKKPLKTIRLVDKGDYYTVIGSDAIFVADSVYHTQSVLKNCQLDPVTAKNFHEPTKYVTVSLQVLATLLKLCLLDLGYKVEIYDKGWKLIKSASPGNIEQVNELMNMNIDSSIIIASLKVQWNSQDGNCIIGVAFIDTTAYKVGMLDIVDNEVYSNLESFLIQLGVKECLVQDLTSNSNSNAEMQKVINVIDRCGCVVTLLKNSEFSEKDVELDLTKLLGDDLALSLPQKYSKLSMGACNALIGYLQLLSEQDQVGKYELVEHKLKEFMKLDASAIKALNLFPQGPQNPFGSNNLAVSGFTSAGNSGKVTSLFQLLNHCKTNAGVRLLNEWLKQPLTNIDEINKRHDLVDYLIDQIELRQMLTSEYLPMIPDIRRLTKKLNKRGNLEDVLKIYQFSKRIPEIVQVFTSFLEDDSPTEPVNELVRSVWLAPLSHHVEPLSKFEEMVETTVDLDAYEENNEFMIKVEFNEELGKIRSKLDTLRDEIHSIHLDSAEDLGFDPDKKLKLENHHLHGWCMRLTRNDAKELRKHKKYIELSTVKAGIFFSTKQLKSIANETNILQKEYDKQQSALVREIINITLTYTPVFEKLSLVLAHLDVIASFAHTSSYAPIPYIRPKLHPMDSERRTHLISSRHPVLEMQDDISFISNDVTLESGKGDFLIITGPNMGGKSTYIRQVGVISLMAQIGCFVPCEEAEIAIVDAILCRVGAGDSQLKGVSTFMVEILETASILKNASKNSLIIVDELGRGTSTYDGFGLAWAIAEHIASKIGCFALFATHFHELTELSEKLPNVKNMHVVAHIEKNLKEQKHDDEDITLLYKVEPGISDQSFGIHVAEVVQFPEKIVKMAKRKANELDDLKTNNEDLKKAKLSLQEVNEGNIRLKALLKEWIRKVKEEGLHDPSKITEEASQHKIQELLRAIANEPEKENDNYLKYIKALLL
Sequence of Msh2-Msh6 (Q03834 whole entry, chain 2 of 2): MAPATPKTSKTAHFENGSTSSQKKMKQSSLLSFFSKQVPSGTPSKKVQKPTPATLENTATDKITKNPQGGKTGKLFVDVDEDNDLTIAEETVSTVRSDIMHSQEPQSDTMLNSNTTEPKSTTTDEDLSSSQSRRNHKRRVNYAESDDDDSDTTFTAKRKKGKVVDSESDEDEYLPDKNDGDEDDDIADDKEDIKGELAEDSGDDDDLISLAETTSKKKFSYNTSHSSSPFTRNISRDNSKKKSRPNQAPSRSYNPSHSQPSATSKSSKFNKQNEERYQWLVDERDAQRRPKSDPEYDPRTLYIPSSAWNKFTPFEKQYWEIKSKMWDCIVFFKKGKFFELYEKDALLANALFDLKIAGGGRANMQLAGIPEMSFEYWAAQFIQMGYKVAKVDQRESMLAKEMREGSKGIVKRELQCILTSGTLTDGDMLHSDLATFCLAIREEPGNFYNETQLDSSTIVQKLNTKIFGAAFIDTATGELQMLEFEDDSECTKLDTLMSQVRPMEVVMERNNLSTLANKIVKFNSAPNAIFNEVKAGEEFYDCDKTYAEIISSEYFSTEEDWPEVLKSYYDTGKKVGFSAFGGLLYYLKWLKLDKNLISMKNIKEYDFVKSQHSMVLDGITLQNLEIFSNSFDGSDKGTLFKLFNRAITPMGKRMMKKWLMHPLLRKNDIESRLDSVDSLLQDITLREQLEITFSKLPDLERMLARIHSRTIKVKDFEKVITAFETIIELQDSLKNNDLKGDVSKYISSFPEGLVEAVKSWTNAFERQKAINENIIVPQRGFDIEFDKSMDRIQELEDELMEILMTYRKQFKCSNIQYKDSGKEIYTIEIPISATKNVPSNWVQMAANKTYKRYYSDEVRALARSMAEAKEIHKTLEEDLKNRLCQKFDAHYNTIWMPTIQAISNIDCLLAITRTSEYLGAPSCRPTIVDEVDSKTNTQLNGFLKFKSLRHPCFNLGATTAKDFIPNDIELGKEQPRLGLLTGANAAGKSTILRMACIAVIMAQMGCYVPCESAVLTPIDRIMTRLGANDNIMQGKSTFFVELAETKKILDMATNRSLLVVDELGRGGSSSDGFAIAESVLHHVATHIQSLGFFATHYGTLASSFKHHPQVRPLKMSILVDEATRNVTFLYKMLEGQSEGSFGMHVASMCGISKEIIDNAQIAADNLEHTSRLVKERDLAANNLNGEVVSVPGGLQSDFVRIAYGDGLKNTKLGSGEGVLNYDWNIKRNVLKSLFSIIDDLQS

Binding result, binds:
B1
B2
B3
B4
B5
B6
B7
B8

Biological target: the molecule itself
Test: SEC

Binding result, binds:
B1
B3
B4
B6
B7
B8
